Patent US20040202655A1

Experiments:
[1] = biological target: IGF1R extracellular domain (human) (UniProt P08069); assay: SPR (BIAcore), IgG captured on mouse anti-human IgG, IGF1R extracellular domain in flow
[2] = biological target: IGF1R extracellular domain (human) (UniProt P08069); assay: SPR (BIAcore), IgG captured on protein A, IGF1R extracellular domain in flow

Binder | Kd [1] | Kd [2]
PINT-8A1 IgG (antibody, V domains shown) VH: EVQLVQSGAEVKKPGESLTISCKGPGYNFFNYWIGWVRQMPGKGLEWMGIIYPTDSDTRYSPSFQGQVTISVDKSISTAYLQWSSLKASDTAMYYCARSIRYCPGGRCYSGYYGMDVWGQGTMVTVSS VL: SELTQDPAVSVALGQTVRITCQGDSLRSYYASWYQQKPGQAPVLVIYGKNNRPSGIPDRFSGSSSGNTASLTITGAQAEDEADYYCNSRDSSGNHVVFGGGTKLTVLG | 0.503 nM | 0.109 nM
PINT-9A2 IgG (antibody, V domains shown) VH: QVQLVQSGAEVRKPGASVKVSCKTSGYTFRNYDINWVRQAPGQGLEWMGRISGHYGNTDHAQKFQGRFTMTKDTSTSTAYMELRSLTFDDTAVYYCARSQWNVDYWGRGTLVTVSS VL: LNFMLTQPHSVSESPGKTVTISCTRSSGSIASNYVQWYQQRPGSSPTTVIFEDNRRPSGVPDRFSGSIDTSSNSASLTISGLKTEDEADYYCQSFDSTNLVVFGGGTKVTVLG | 0.138 nM | 0.24 nM
